For two proteins, localisation_or_trafficking and expression_or_secretion results are on record in PMC11555622.

Data set [1] is described as follows: confocal microscopy, polarized MDCK. The settings on record: glycan lost.
Data set [2] can be described thus: domain-selective surface biotinylation, apical vs basolateral. Conditions: glycan lost.
Data set [3] is described as follows: surface biotinylation, amount of DUOX2 at cell surface. Conditions: glycan lost; control: wild type DUOXA2.
Data set [4] can be described thus: immunoblot of HEK293 lysate. Conditions: glycan lost. (In western blotting, separated proteins are transferred to a membrane and probed.)
The nature of data set [5]: surface biotinylation, amount of DUOX1 at cell surface. Conditions: glycan lost; control: wild type DUOXA1.

B1: DUOXA2: N84Q/N109Q/N121Q (protein)
parent chain: MTLWNGVLPFYPQPRHAAGFSVPLLIVILVFLALAASFLLILPGIRGHSRWFWLVRVLLSLFIGAEIVAVHFSAEWFVGTVNTNTSYKAFSAARVTARVRLLVGLEGINITLTGTPVHQLNETIDYNEQFTWRLKENYAAEYANALEKGLPDPVLYLAEKFTPSSPCGLYHQYHLAGHYASATLWVAFCFWLLSNVLLSTPAPLYGGLALLTTGAFALFGVFALASISSVPLCPLRLGSSALTTQYGAAFWVTLATGVLCLFLGGAVVSLQYVRPSALRTLLDQSAKDCSQERGGSPLILGDPLHKQAALPDLKCITTNL
With B1, the localisation_or_trafficking entry is reported as “no change” in data set [1] (control: wild type DUOXA2), “no change” in data set [2] (control: wild type DUOXA2) and “decreases” in data set [3]. The expression_or_secretion result in data set [4] (control: wild type DUOXA2) is “decreases”.

B2: DUOXA1: N84Q/N109Q/N121Q (protein)
parent chain: MATLGHTFPFYAGPKPTFPMDTTLASIIMIFLTALATFIVILPGIRGKTRLFWLLRVVTSLFIGAAILAVNFSSEWSVGQVSTNTSYKAFSSEWISADIGLQVGLGGVNITLTGTPVQQLNETINYNEEFTWRLGENYAEEYAKALEKGLPDPVLYLAEKFTPRSPCGLYRQYRLAGHYTSAMLWVAFLCWLLANVMLSMPVLVYGGYMLLATGIFQLLALLFFSMATSLTSPCPLHLGASVLHTHHGPAFWITLTTGLLCVLLGLAMAVAHRMQPHRLKAFFNQSVDEDPMLEWSPEEGGLLSPRYRSMADSPKSQDIPLSEASSTKAYCKEAHPKDPDCAL
For B2, the results for the localisation_or_trafficking result in data set [1] (control: wild type DUOXA1), in data set [5] and in data set [2] (control: wild type DUOXA1) were “changes”, “decreases” and “changes”, respectively. Further, the expression_or_secretion entry in data set [4] (control: wild type DUOXA1) is reported as “no change”.
